Laboratory results from PMC9482650, “Quantitative fragmentomics allow affinity mapping of interactomes” (Nature Communications, 2022).

What was measured:
Test in all cases: holdup assay
Parameters in all cases: key: below the threshold = too weak to quantify, mostly under pKd 3.1 to 4
DLG2_3, Q15700 = target: DLG2_3, Q15700
LIN7C, Q9NUP9 = target: T1, LIN7C, Q9NUP9
T1 sequence (Q9NUP9 88-185, limits assumed, looked up): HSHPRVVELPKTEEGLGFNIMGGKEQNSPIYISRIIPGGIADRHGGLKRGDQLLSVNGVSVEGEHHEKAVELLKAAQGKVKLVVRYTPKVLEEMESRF

SCRIB_3, Q14160 = target: SCRIB_3, Q14160
Sequence of SCRIB_3, Q14160 (Q14160 999-1103): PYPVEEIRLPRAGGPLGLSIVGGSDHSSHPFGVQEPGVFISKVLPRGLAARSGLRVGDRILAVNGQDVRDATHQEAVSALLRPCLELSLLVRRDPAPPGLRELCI

MPDZ_10, O75970 = target: T2, MPDZ_10, O75970
T2 sequence (O75970 1624-1722, limits assumed, looked up): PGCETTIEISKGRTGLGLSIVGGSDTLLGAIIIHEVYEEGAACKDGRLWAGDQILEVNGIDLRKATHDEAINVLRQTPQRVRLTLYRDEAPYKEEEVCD

Inadl_10, Q8NI35 = target: Inadl_10, Q8NI35
Sequence of Inadl_10, Q8NI35 (Q8NI35 1673-1763): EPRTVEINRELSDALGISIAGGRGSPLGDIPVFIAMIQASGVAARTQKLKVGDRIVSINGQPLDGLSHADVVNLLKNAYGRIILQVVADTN

LDB3, O75112 = target: LDB3, O75112
Sequence of LDB3, O75112 (O75112 1-94): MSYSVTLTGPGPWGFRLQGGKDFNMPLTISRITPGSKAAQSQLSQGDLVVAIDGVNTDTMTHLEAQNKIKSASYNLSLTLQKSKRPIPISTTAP

SIPA1L2, Q9P2F8 = target: T3, SIPA1L2, Q9P2F8
T3 sequence (Q9P2F8 945-1036, limits assumed, looked up): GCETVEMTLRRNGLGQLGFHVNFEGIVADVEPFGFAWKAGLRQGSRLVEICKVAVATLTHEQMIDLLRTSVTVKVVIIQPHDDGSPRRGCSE

DLG1_1, Q12959 = target: DLG1_1, Q12959
DLG3_1, Q92796 = target: T4, DLG3_1, Q92796
T4 sequence (Q92796 125-227, limits assumed, looked up): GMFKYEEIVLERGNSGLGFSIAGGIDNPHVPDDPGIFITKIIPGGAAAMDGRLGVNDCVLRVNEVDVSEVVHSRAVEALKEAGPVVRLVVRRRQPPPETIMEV

PARD3_3, Q8TEW0 = target: PARD3_3, Q8TEW0
Sequence of PARD3_3, Q8TEW0 (Q8TEW0 582-685): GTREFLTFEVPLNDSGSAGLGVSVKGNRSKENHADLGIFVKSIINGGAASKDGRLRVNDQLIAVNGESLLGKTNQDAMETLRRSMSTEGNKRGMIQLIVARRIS

APBA2_2, Q99767 = target: T5, APBA2_2, Q99767
T5 sequence (Q99767 654-744, limits assumed, looked up): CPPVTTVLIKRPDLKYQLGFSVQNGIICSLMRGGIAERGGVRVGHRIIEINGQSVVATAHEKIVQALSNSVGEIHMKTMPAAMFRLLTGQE

NOS1, P29475 = target: NOS1, P29475
Sequence of NOS1, P29475 (P29475 9-101): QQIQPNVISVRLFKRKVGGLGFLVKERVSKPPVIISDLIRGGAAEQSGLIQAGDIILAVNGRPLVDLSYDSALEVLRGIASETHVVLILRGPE

DFNB31_2, Q9P202 = target: T6, DFNB31_2, Q9P202
T6 sequence (Q9P202 274-371, limits assumed, looked up): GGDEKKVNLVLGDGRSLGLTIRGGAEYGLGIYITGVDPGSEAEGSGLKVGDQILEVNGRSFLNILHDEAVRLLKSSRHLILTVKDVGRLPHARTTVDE

LNX2_2, Q8N448 = target: T7, LNX2_2, Q8N448
T7 sequence (Q8N448 334-432, limits assumed, looked up): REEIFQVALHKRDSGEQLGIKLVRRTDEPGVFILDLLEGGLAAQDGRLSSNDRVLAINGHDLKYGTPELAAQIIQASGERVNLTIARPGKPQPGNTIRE

GRIP2_4, Q9C0E4 = target: GRIP2_4, Q9C0E4
Sequence of GRIP2_4, Q9C0E4 (Q9C0E4 446-548): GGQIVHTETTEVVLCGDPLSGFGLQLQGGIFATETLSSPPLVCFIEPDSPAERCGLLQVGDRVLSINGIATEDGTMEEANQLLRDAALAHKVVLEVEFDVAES

FRMPD1, Q5SYB0 = target: T8, FRMPD1, Q5SYB0
T8 sequence (Q5SYB0 52-145, limits assumed, looked up): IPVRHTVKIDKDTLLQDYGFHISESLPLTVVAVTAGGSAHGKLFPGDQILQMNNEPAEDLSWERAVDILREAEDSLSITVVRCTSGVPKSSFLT

TX1BP3, O14907 = target: T9, TX1BP3, O14907
T9 sequence (O14907 10-122, limits assumed, looked up): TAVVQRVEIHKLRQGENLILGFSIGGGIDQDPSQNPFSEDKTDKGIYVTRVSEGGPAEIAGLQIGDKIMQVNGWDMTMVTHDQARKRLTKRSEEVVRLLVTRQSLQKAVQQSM

MAGI1_2, Q96QZ7 = target: MAGI1_2, Q96QZ7
Sequence of MAGI1_2, Q96QZ7 (Q96QZ7 456-580): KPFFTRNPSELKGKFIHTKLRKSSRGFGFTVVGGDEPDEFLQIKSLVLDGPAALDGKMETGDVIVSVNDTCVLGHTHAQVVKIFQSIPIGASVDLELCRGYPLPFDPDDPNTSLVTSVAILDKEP

GRIP2_5, Q9C0E4 = target: GRIP2_5, Q9C0E4
Sequence of GRIP2_5, Q9C0E4 (Q9C0E4 544-642): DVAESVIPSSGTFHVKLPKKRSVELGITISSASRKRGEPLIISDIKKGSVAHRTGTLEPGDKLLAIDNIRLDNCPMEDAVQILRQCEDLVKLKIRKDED

GORASP1, Q9BQQ3 = target: GORASP1, Q9BQQ3
Sequence of GORASP1, Q9BQQ3 (Q9BQQ3 1-208): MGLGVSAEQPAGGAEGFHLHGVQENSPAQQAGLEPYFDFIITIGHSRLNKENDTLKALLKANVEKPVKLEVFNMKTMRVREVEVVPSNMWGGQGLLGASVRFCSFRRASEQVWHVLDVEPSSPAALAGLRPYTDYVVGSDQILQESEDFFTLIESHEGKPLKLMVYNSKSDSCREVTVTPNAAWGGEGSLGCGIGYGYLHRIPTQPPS

GRIP2_6, Q9C0E4 = target: GRIP2_6, Q9C0E4
Sequence of GRIP2_6, Q9C0E4 (Q9C0E4 648-740): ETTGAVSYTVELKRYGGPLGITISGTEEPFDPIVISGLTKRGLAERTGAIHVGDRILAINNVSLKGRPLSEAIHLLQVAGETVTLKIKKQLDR

MPP2, Q14168 = target: T10, MPP2, Q14168
T10 sequence (Q14168 180-250, limits assumed, looked up): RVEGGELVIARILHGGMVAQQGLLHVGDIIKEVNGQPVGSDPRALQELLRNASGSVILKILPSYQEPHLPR

HTRA2, O43464 = target: HTRA2, O43464
Sequence of HTRA2, O43464 (O43464 355-458): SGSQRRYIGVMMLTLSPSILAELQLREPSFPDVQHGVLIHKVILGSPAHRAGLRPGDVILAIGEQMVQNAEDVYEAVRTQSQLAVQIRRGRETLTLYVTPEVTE

GRIP2_7, Q9C0E4 = target: GRIP2_7, Q9C0E4
Sequence of GRIP2_7, Q9C0E4 (Q9C0E4 934-1023): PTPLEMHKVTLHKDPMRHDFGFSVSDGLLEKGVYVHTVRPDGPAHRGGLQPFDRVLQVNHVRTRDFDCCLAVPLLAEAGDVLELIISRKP

NHERF4_2, Q86UT5 = target: NHERF4_2, Q86UT5
Sequence of NHERF4_2, Q86UT5 (Q86UT5 220-308): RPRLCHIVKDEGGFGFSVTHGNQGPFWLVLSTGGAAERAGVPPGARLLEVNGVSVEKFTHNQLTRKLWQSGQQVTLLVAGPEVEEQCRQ

DVL3, Q92997 = target: T11, DVL3, Q92997
T11 sequence (Q92997 244-331, limits assumed, looked up): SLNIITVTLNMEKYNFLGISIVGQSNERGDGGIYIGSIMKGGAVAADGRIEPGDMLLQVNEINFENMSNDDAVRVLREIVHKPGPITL

[1] = plain residues with an end cap or a label only (N-terminal biotin on a linker: ttds)
[2] = plain residues with an end cap or a label only (N-terminal biotin on a linker: ahx)

B1: ARHGEF16, Q5VV41 (peptide)
chain: MERLRVETDV
pKd (DLG2_3, Q15700; [1]): 4.11 | pKd (LIN7C, Q9NUP9; [1]): below the threshold | pKd (SCRIB_3, Q14160; [1]): 5.21 | pKd (MPDZ_10, O75970; [1]): 3.71 | pKd (Inadl_10, Q8NI35; [1]): below the threshold | pKd (LDB3, O75112; [1]): below the threshold | pKd (SIPA1L2, Q9P2F8; [1]): below the threshold | pKd (DLG1_1, Q12959; [1]): 5.01 | pKd (DLG3_1, Q92796; [1]): 4.59 | pKd (PARD3_3, Q8TEW0; [1]): below the threshold | pKd (APBA2_2, Q99767; [1]): below the threshold | pKd (NOS1, P29475; [1]): below the threshold | pKd (DFNB31_2, Q9P202; [1]): below the threshold | pKd (LNX2_2, Q8N448; [1]): 3.93 | pKd (GRIP2_4, Q9C0E4; [1]): below the threshold | pKd (FRMPD1, Q5SYB0; [1]): below the threshold | pKd (TX1BP3, O14907; [1]): 5.04 | pKd (MAGI1_2, Q96QZ7; [1]): 3.9 | pKd (GRIP2_5, Q9C0E4; [1]): below the threshold | pKd (GORASP1, Q9BQQ3; [1]): below the threshold | pKd (GRIP2_6, Q9C0E4; [1]): below the threshold | pKd (MPP2, Q14168; [1]): below the threshold | pKd (HTRA2, O43464; [1]): below the threshold | pKd (GRIP2_7, Q9C0E4; [1]): 3.64 | pKd (NHERF4_2, Q86UT5; [1]): below the threshold | pKd (DVL3, Q92997; [1]): 3.65

B2: RGS12, O14924 (peptide)
chain: KTSAHHATFV
pKd (DLG2_3, Q15700; [2]): 3.47 | pKd (LIN7C, Q9NUP9; [2]): below the threshold | pKd (SCRIB_3, Q14160; [2]): 4.18 | pKd (MPDZ_10, O75970; [2]): 3.98 | pKd (Inadl_10, Q8NI35; [2]): 3.91 | pKd (LDB3, O75112; [2]): below the threshold | pKd (SIPA1L2, Q9P2F8; [2]): below the threshold | pKd (DLG1_1, Q12959; [2]): 3.93 | pKd (DLG3_1, Q92796; [2]): below the threshold | pKd (PARD3_3, Q8TEW0; [2]): below the threshold | pKd (APBA2_2, Q99767; [2]): below the threshold | pKd (NOS1, P29475; [2]): 3.66 | pKd (DFNB31_2, Q9P202; [2]): below the threshold | pKd (LNX2_2, Q8N448; [2]): 4.62 | pKd (GRIP2_4, Q9C0E4; [2]): below the threshold | pKd (FRMPD1, Q5SYB0; [2]): below the threshold | pKd (TX1BP3, O14907; [2]): 3.78 | pKd (MAGI1_2, Q96QZ7; [2]): 4.03 | pKd (GRIP2_5, Q9C0E4; [2]): below the threshold | pKd (GORASP1, Q9BQQ3; [2]): 3.86 | pKd (GRIP2_6, Q9C0E4; [2]): below the threshold | pKd (MPP2, Q14168; [2]): below the threshold | pKd (HTRA2, O43464; [2]): 3.93 | pKd (GRIP2_7, Q9C0E4; [2]): 3.72 | pKd (NHERF4_2, Q86UT5; [2]): below the threshold | pKd (DVL3, Q92997; [2]): 3.56

B3: ADRB2, P07550 (peptide)
chain: RNCSTNDSLL
pKd (DLG2_3, Q15700; [2]): below the threshold | pKd (LIN7C, Q9NUP9; [2]): below the threshold | pKd (SCRIB_3, Q14160; [2]): below the threshold | pKd (MPDZ_10, O75970; [2]): 3.69 | pKd (Inadl_10, Q8NI35; [2]): 3.56 | pKd (LDB3, O75112; [2]): below the threshold | pKd (SIPA1L2, Q9P2F8; [2]): below the threshold | pKd (DLG1_1, Q12959; [2]): below the threshold | pKd (DLG3_1, Q92796; [2]): below the threshold | pKd (PARD3_3, Q8TEW0; [2]): 3.79 | pKd (APBA2_2, Q99767; [2]): below the threshold | pKd (NOS1, P29475; [2]): below the threshold | pKd (DFNB31_2, Q9P202; [2]): below the threshold | pKd (LNX2_2, Q8N448; [2]): below the threshold | pKd (GRIP2_4, Q9C0E4; [2]): below the threshold | pKd (FRMPD1, Q5SYB0; [2]): below the threshold | pKd (TX1BP3, O14907; [2]): 3.49 | pKd (MAGI1_2, Q96QZ7; [2]): below the threshold | pKd (GRIP2_5, Q9C0E4; [2]): below the threshold | pKd (GORASP1, Q9BQQ3; [2]): below the threshold | pKd (GRIP2_6, Q9C0E4; [2]): below the threshold | pKd (MPP2, Q14168; [2]): below the threshold | pKd (HTRA2, O43464; [2]): below the threshold | pKd (GRIP2_7, Q9C0E4; [2]): below the threshold | pKd (NHERF4_2, Q86UT5; [2]): below the threshold | pKd (DVL3, Q92997; [2]): below the threshold
